According to the supplement of paper PMC9112550, “Optimization of the antimicrobial peptide Bac7 by deep mutational scanning” (BMC Biology, 2022):

system: Escherichia coli TOP10; assay: shrunken log2 fold change of peptide-encoding DNA abundance (4.5 h post-induction vs induction); higher = less antimicrobial activity (less host growth inhibition); details: time post-induction: 4.5 h; library: site-saturation at positions 5, 18, 19, 20
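Note: peptides expressed intracellularly from a pBAD plasmid library in pooled LB shake-flask culture, induced with 0.3% L-arabinose, DNA abundance read by NGS, three biological replicates, DESeq2 with apeglm shrinkage.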

Sequence | shrunken log2 fold change
RRIRRRPPRLPRPRPRPQYLPRP | -0.0489
RRIRTRPPRLPRPRPRPEGYPRP | -0.104
RRIRCRPPRLPRPRPRPPMPPRP | 0.45
RRIRSRPPRLPRPRPRPAFCPRP | 0.259
RRIRSRPPRLPRPRPRPSNQPRP | -0.242
RRIRKRPPRLPRPRPRPKQVPRP | -0.176
RRIRCRPPRLPRPRPRPCARPRP | 0.174
RRIRYRPPRLPRPRPRPSTLPRP | -0.853
RRIRQRPPRLPRPRPRPTTFPRP | -0.485
RRIRKRPPRLPRPRPRPLDGPRP | 0.105
RRIRFRPPRLPRPRPRPCSKPRP | -0.152
RRIRLRPPRLPRPRPRPQSAPRP | -0.372
RRIRPRPPRLPRPRPRPELDPRP | 0.0969
RRIRVRPPRLPRPRPRPNNWPRP | -0.183
RRIRQRPPRLPRPRPRPTDKPRP | -0.112
RRIRNRPPRLPRPRPRPAVTPRP | 0.0989
RRIRARPPRLPRPRPRPIHWPRP | 0.0725
RRIRPRPPRLPRPRPRPSNEPRP | -0.406
RRIRYRPPRLPRPRPRPPCGPRP | -0.406
RRIRLRPPRLPRPRPRPQQDPRP | -0.29
RRIRQRPPRLPRPRPRPKQSPRP | -0.0143
RRIRMRPPRLPRPRPRPFDWPRP | 0.597
RRIRVRPPRLPRPRPRPFLRPRP | -0.563

Sequence | shrunken log2 fold change
RRIRRRPPRLPRPRPRPAQHPRP | 0.369
RRIRARPPRLPRPRPRPCADPRP | 0.734
RRIRFRPPRLPRPRPRPQVYPRP | -0.167
RRIRNRPPRLPRPRPRPHTFPRP | -0.0139
RRIRYRPPRLPRPRPRPMICPRP | -0.0731
RRIRTRPPRLPRPRPRPGVHPRP | -0.055
RRIRMRPPRLPRPRPRPFNFPRP | -0.598
RRIRCRPPRLPRPRPRPMHDPRP | 0.0244
RRIRSRPPRLPRPRPRPEEEPRP | 1.47
RRIRSRPPRLPRPRPRPINQPRP | -0.657
RRIRVRPPRLPRPRPRPMFGPRP | 0.00478
RRIRYRPPRLPRPRPRPQTLPRP | -0.088
RRIRQRPPRLPRPRPRPPHRPRP | 0.445
RRIRVRPPRLPRPRPRPSLQPRP | -0.0631
RRIRGRPPRLPRPRPRPAAAPRP | 2.36
RRIRDRPPRLPRPRPRPSFHPRP | -0.429
RRIRKRPPRLPRPRPRPVLIPRP | -0.141
RRIRKRPPRLPRPRPRPNLFPRP | 0.00721
RRIRFRPPRLPRPRPRPWYSPRP | -0.0415
RRIRHRPPRLPRPRPRPNTQPRP | -0.248
RRIRFRPPRLPRPRPRPERDPRP | -0.0622
RRIRSRPPRLPRPRPRPTGIPRP | -0.0906
RRIRHRPPRLPRPRPRPLHLPRP | -0.0926

Sequence | shrunken log2 fold change
RRIRFRPPRLPRPRPRPHCPPRP | -0.629
RRIRCRPPRLPRPRPRPKRQPRP | 0.13
RRIRHRPPRLPRPRPRPYMIPRP | -0.025
RRIRSRPPRLPRPRPRPRQMPRP | 0.38
RRIRPRPPRLPRPRPRPVEMPRP | 0.0666
RRIRFRPPRLPRPRPRPTKAPRP | 0.0916
RRIRLRPPRLPRPRPRPIYFPRP | -0.37
RRIRERPPRLPRPRPRPQGTPRP | 0.0468
RRIRFRPPRLPRPRPRPPYTPRP | -0.419
RRIRPRPPRLPRPRPRPPDRPRP | 0.583
RRIRVRPPRLPRPRPRPTKNPRP | -0.00729
RRIRPRPPRLPRPRPRPQAKPRP | 0.277
RRIRIRPPRLPRPRPRPLYIPRP | -0.695
RRIRLRPPRLPRPRPRPFCGPRP | -0.126
RRIRQRPPRLPRPRPRPMIFPRP | -0.0627
RRIRYRPPRLPRPRPRPFGWPRP | 0.102
RRIRGRPPRLPRPRPRPCQKPRP | 0.0649
RRIRKRPPRLPRPRPRPFKTPRP | 0.427
RRIRHRPPRLPRPRPRPYQKPRP | -0.01
RRIRMRPPRLPRPRPRPIYCPRP | -0.163
RRIRGRPPRLPRPRPRPPRLPRP | 0.702
RRIRRRPPRLPRPRPRPQTEPRP | -0.0572
RRIRVRPPRLPRPRPRPKFIPRP | -0.286

Sequence | shrunken log2 fold change
RRIRPRPPRLPRPRPRPCDCPRP | 0.0287
RRIRWRPPRLPRPRPRPNCCPRP | -0.16
RRIRYRPPRLPRPRPRPNQQPRP | -0.0105
RRIRLRPPRLPRPRPRPLVSPRP | 0.0156
RRIRWRPPRLPRPRPRPKQQPRP | -0.133
RRIRNRPPRLPRPRPRPCKIPRP | -0.00963
RRIRGRPPRLPRPRPRPQQPPRP | 0.423
RRIRYRPPRLPRPRPRPLIEPRP | -0.442
RRIRGRPPRLPRPRPRPSKTPRP | 0.558
RRIRERPPRLPRPRPRPVFVPRP | -0.178
RRIRARPPRLPRPRPRPCWQPRP | 0.096
RRIRNRPPRLPRPRPRPKKAPRP | -0.0485
RRIRVRPPRLPRPRPRPINNPRP | -0.684
RRIRQRPPRLPRPRPRPKQGPRP | 0.401
RRIRDRPPRLPRPRPRPNHCPRP | 0.0177
RRIRQRPPRLPRPRPRPASMPRP | -0.39
RRIRWRPPRLPRPRPRPHSKPRP | 1.84
RRIRMRPPRLPRPRPRPYYDPRP | 0.000459
RRIRMRPPRLPRPRPRPNLVPRP | 0.288
RRIRYRPPRLPRPRPRPSGWPRP | -0.00312
RRIRPRPPRLPRPRPRPFGKPRP | -0.164
RRIRWRPPRLPRPRPRPAPKPRP | 0.992
